Columns and labels:
[1] = target: biotinylated NmeHNH (Neisseria meningitidis) (UniProt C9X1G5); experiment: BLI; biotinylated NmeHNH on streptavidin biosensors, Acr as analyte, 37 °C, 20 mM Tris, 100 mM NaCl, pH 7.4 without DTT; global 1:1 fit
[2] = target: biotinylated NmeHNH (Neisseria meningitidis) (UniProt C9X1G5); experiment: BLI; biotinylated NmeHNH on streptavidin biosensors, Acr as analyte, 37 °C, 20 mM Tris, 100 mM NaCl, pH 7.4 with 1 mM DTT; global 1:1 fit
[3] = target: Cys17 (UniProt position 17, AGYDGCGLCLA); experiment: NMR; conditions: 25 °C (general statement in the NMR methods), 100 mM NaCl, 50 mM Tris, buffer-exchanged at each pH, Free protein. Reduced monomer is inferred from Cbeta shifts of about 25.5-29.5 ppm, typical of free thiol. The presence of a reductant in the titration buffer is not stated.
[4] = target: Cys80 (UniProt position 80, VGMASCWEFVE); experiment: NMR; conditions: 25 °C (general statement in the NMR methods), 100 mM NaCl, 50 mM Tris, buffer-exchanged at each pH, Free protein. Reduced monomer is inferred from Cbeta shifts of about 25.5-29.5 ppm, typical of free thiol. The presence of a reductant in the titration buffer is not stated.
[5] = target: BoeAcrIIC1 (AcrIIC1 ortholog from Brackiella oedipodis) (Brackiella oedipodis); experiment: SEC + other: 1H NMR spectra; AcrIIC1 ortholog alone, oxidizing condition
[6] = target: NmeAcrIIC1 (AcrIIC1 from Neisseria meningitidis), reduced form (Neisseria meningitidis); experiment: SEC; NmeAcrIIC1 alone, no reductant in the buffer or excess H2O2 added to the monomer eluent

## AcrIIC1-SS (NmeAcrIIC1 with Cys17 and Cys80 substituted with serine) (natural protein)
[1]
  Kd: 10.8 nM
[2]
  Kd: 12.7 nM

## Anti-CRISPR protein AcrIIC1 (NmeAcrIIC1) (Neisseria meningitidis)
[3]
  pKa: 8.920 ± 0.158
[4]
  pKa: 8.258 ± 0.218

## BoeAcrIIC1 (AcrIIC1 ortholog from Brackiella oedipodis) (natural protein)
[5]
  stoichiometry N: 2

## NmeAcrIIC1 (AcrIIC1 from Neisseria meningitidis), reduced form (natural protein)
[6]
  stoichiometry N: 2
[2]
  Kd: 1.78 nM

## oxidized NmeAcrIIC1 dimer (natural protein)
[1]
  BLI response: < 0.05

Source: article PMC9674691
